Results reported in CN113061185A (EXCYTE BEIJING PHARMACEUTICAL TECH DEVELOPMENT CO LTD, dated 2021).
Numbering of substitutions follows the chain as printed.

B1: B10 parental antibody as expressed and purified in Example 3 (antibody, V domains shown)
VH: QVQLQQSGAEVKKPGSSVKVSCKASGGTFSSYAISWVRQAPGQGLEWMGGIIPIFGTANYAQKFQGRVTITADESTSTAYMELSSLRSEDTAVYYCARGWYFDLWGRGTLVTVSS
VL: LPVLTQPPSASGTPGQRVTISCSGSSSNIGGYSVNWYQQFPGTAPKLLIYRNNQRPSGVPDRFSGSKSGASASLAISGLQSEDEADYYCAAWDDSLIGYVFGTGTQLTVL
notes: also called 亲本B10; B10亲本抗体
B2: B10.3 (affinity-matured mutant of B10) (scFv)
scFv: QVQLQQSGAEVKKPGSSVKVSCKASGGTFSKSAIQWVRQAPGQGLEWMGGVIPIFGTANYAQKFQGRVTITADESTSTAYMELSSLRSEDTAVYYCARGWYLDLWGRGTLVTVSSGGSSRSSSSGGGGSGGGGLPVLTQPPSASGTPGQRVTISCSGSSNNIGGYSVNWYQQFPGTAPKLLIYRNNQRPSGVPDRFSGSKSGASASLAISGLQSEDEADYYCAAWDDSVIGWLFGTGTQLTVL
notes: also called 突变体B10.3
B3: B10.5 (affinity-matured mutant of B10) (scFv)
scFv: B2 scFv with Q35H, N160S, E217V, V229L, W232Y, L233V
notes: also called 突变体B10.5
B4: B10.9 (affinity-matured mutant of B10) (scFv)
scFv: B2 scFv with V229E
notes: also called 突变体B10.9
B5: B10.4 (affinity-matured mutant of B10) (scFv)
scFv: B2 scFv with Q35M
notes: also called 突变体B10.4

Target: T1, BCMA on the surface of BCMA-positive cell lines H929 (NCI-H929) and RPMI8226 (human, UniProt Q02223 1-184)
T1 construct: whole, on cells; Endogenous BCMA of the cell lines; also called 细胞膜表面的BCMA抗原
T1 sequence (looked up): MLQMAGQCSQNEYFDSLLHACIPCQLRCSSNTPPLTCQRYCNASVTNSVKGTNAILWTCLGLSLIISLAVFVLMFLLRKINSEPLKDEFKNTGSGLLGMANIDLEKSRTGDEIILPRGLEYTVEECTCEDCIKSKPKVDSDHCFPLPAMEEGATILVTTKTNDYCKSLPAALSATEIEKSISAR
Experiment: flow cytometry (FACS), apparent affinity on BCMA-bearing cells

| Binder | Kd |
| --- | --- |
| B1 | 0.3 nM |

Target: T1, BCMA on the surface of BCMA-positive …
Experiment: flow cytometry on RPMI8226 cells

| Binder | 细胞结合百分率 (percent of cells bound) |
| --- | --- |
| B1 | 5.54% |
| B2 | 54.9% |
| B3 | 58.2% |
| B4 | 42.9% |
| B5 | 57.5% |

Target: T2, BCMA-Fc fusion protein (Acrobiosystems, catalogue no. BC7-H5254) (human, UniProt Q02223 1-54)
T2 construct: Bought fusion protein; Used as coated antigen in ELISA; also called BCMA抗原; BCMA-Fc抗原; not shown: human Fc
T2 sequence (looked up): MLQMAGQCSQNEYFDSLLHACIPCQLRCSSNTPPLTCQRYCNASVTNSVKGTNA
Experiment: ELISA, intrinsic affinity

| Binder | Kd |
| --- | --- |
| B1 | ~10 nM |

Target: T1, BCMA on the surface of BCMA-positive …
Experiment: flow cytometry on RPMI8226 cells; EC50 relative to J6

| Binder | fold improvement of EC50 over J6 |
| --- | --- |
| B1 | ~1.5 fold |

Target: T2, BCMA-Fc fusion protein (Acrobiosystems, …)
Experiment: ELISA; affinity estimated from the EC50 ratio to J6 (J6 taken as 0.2 nM)

| Binder | Kd |
| --- | --- |
| B2 | 0.26 nM |
| B3 | 0.27 nM |
| B4 | 0.29 nM |
| B5 | 0.31 nM |

Target: T1, BCMA on the surface of BCMA-positive …
Experiment: flow cytometry on H929 cells

| Binder | 细胞结合百分率 (percent of cells bound) |
| --- | --- |
| B1 | 75.3% |
| B2 | 98% |
| B3 | 97.2% |
| B4 | 91.6% |
| B5 | 97.9% |

Target: T1, BCMA on the surface of BCMA-positive …
Experiment: flow cytometry on RPMI8226 cells; EC50 relative to J6
Remark: another data set of the same source

| Binder | 相对于J6提高倍数 (fold improvement of EC50 over J6) |
| --- | --- |
| B1 | 1.74 fold |
| B2 | 97.1 fold |
| B3 | 67.5 fold |
| B4 | 60.7 fold |
| B5 | 79.9 fold |

Target: T2, BCMA-Fc fusion protein (Acrobiosystems, …)
Experiment: ELISA on BCMA; EC50 relative to J6

| Binder | Fold of J6 (EC50 ratio) |
| --- | --- |
| B2 | 1.29 fold |
| B3 | 1.35 fold |
| B4 | 1.43 fold |
| B5 | 1.55 fold |

Target: T1, BCMA on the surface of BCMA-positive …
Experiment: flow cytometry, antibody titration on RPMI8226 cells

| Binder | EC50 |
| --- | --- |
| B1 | 1.57 µg/mL |
| B2 | 0.0282 µg/mL |
| B3 | 0.0406 µg/mL |
| B4 | 0.0451 µg/mL |
| B5 | 0.0343 µg/mL |
